Measured values from patent publication US20170362327A1.

Target: human TrkA on the surface of TF-1 cells (human), P04629
Test: cell-based or functional assay

human TrkA on the surface of TF-1 cells (human), P04629, sequence (P04629 33-796): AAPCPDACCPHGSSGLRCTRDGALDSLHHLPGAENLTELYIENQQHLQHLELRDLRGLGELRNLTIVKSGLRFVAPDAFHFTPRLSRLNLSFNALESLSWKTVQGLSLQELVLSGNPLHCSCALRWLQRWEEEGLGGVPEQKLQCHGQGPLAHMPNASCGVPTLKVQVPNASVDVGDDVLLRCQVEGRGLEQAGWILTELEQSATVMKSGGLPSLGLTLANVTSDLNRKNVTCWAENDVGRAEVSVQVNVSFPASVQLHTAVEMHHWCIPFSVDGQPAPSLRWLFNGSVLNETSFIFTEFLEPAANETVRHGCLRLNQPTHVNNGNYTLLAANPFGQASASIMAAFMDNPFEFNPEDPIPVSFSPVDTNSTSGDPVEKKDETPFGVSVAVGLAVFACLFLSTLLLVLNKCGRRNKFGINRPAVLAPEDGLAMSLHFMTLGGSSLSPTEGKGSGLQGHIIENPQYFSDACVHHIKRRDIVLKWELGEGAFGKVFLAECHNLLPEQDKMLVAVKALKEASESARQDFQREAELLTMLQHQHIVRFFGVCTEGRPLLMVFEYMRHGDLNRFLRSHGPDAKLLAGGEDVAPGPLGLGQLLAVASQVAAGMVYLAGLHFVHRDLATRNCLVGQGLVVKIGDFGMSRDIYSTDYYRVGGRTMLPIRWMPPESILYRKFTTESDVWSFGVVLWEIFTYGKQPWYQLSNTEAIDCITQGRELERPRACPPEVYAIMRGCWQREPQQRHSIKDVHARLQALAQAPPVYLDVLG

- TF-1 cell proliferation assay IC50 (beta-NGF induced proliferation): 0.23 µg/mL
B1: MNAC13 mouse antibody (antibody, mouse IgG1, kappa)
heavy: EVKLVESGGGLVQPGGSLKLSCAASGFTFSTYTMSWARQTPEKRLEWVAYISKGGGSTYYPDTVKGRFTISRDNAKNTLYLQMSSLKSEDTALYYCARGAMYGNDFFYPMDYWGQGTSVTVSSKTTPPSVYPLAPGSAAQTNSMVTLGCLVKGYFPEPVTVTWNSGSLSSGVHTFPAVLESDLYTLSSSVTVPSSPRPSETVTCNVAHPASSTKVDKKIVPRDCGCKPCICTVPEVSSVFIFPPKPKDVLTITLTPKVTCVVVDISKDDPEVQFSWFVDDVEVHTAQTQPREEQFNSTFRSVSELPIMHQDWLNGKEFKCRVNSAAFPAPIEKTISKTKGRPKAPQVYTIPPPKEQMAKDKVSLTCMITDFFPEDITVEWQWNGQPAENYKNTQPIMNTNGSYFVYSKLNVQKSNWEAGNTFTCSVLHEGLHNHHTEKSLSHSPGK
light: QIVLTQSPAIMSASLGEEITLTCSASSSVSYMHWYQQKSGTSPKLLIYTTSNLASGVPSRFSGSGSGTFYSLTISSVEAEDAADYYCHQWSSYPWTFGGGTKLEIKADAAPTVSIFPPSSEQLTSGGASVVCFLNNFYPKDINVKWKIDGSERQNGVLNSWTDQDSKDSTYSMSSTLTLTKDEYERHNSYTCEATHKTSTSPIVKSFNRNEC
